Measured values reported in PMC3581772.

Assays:
[1] = biological target: T1, I59T human lysozyme (human) (UniProt P61626)
T1 sequence: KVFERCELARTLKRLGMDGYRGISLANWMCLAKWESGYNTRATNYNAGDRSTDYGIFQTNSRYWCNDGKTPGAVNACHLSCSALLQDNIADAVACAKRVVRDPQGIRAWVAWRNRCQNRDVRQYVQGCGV

[2] = biological target: T1, I59T human lysozyme (human); remark: listed apart in the source
[3] = biological target: amyloid β peptide Aβ(1–42) (UniProt P05067)

decrease of ThT fluorescence at the endpoint of I59T lysozyme fibril formation, lysozyme-to-α2M 10:1 [1]: > 90%
I59T lysozyme left soluble at the endpoint (SDS–PAGE of supernatants) [2]: > 90%
suppression of ThT signal at the endpoint of Aβ(1–42) fibril formation, Aβ-to-α2M 10:1 [3]: > 80%
B1: native α2-macroglobulin (natural protein)
chain: SVSGKPQYMVLVPSLLHTETTEKGCVLLSYLNETVTVSASLESVRGNRSLFTDLEAENDVLHCVAFAVPKSSSNEEVMFLTVQVKGPTQEFKKRTTVMVKNEDSLVFVQTDKSIYKPGQTVKFRVVSMDENFHPLNELIPLVYIQDPKGNRIAQWQSFQLEGGLKQFSFPLSSEPFQGSYKVVVQKKSGGRTEHPFTVEEFVLPKFEVQVTVPKIITILEEEMNVSVCGLYTYGKPVPGHVTVSICRKYSDASDCHGEDSQAFCEKFSGQLNSHGCFYQQVKTKVFQLKRKEYEMKLHTEAQIQEEGTVVELTGRQSSEITRTITKLSFVKVDSHFRQGIPFFGQVRLVDGKGVPIPNKVIFIRGNEANYYSNATTDEHGLVQFSINTTNVMGTSLTVRVNYKDRSPCYGYQWVSEEHEEAHHTAYLVFSPSKSFVHLEPMSHELPCGHTQTVQAHYILNGGTLLGLKKLSFYYLIMAKGGIVRTGTHGLLVKQEDMKGHFSISIPVKSDIAPVARLLIYAVLPTGDVIGDSAKYDVENCLANKVDLSFSPSQSLPASHAHLRVTAAPQSVCALRAVDQSVLLMKPDAELSASSVYNLLPEKDLTGFPGPLNDQDNEDCINRHNVYINGITYTPVSSTNEKDMYSFLEDMGLKAFTNSKIRKPKMCPQLQQYEMHGPEGLRVGFYESDVMGRGHARLVHVEEPHTETVRKYFPETWIWDLVVVNSAGVAEVGVTVPDTITEWKAGAFCLSEDAGLGISSTASLRAFQPFFVELTMPYSVIRGEAFTLKATVLNYLPKCIRVSVQLEASPAFLAVPVEKEQAPHCICANGRQTVSWAVTPKSLGNVNFTVSAEALESQELCGTEVPSVPEHGRKDTVIKPLLVEPEGLEKETTFNSLLCPSGGEVSEELSLKLPPNVVEESARASVSVLGDILGSAMQNTQNLLQMPYGCGEQNMVLFAPNIYVLDYLNETQQLTPEIKSKAIGYLNTGYQRQLNYKHYDGSYSTFGERYGRNQGNTWLTAFVLKTFAQARAYIFIDEAHITQALIWLSQRQKDNGCFRSSGSLLNNAIKGGVEDEVTLSAYITIALLEIPLTVTHPVVRNALFCLESAWKTAQEGDHGSHVYTKALLAYAFALAGNQDKRKEVLKSLNEEAVKKDNSVHWERPQKPKAPVGHFYEPQAPSAEVEMTSYVLLAYLTAQPAPTSEDLTSATNIVKWITKQQNAQGGFSSTQDTVVALHALSKYGAATFTRTGKAAQVTIQSSGTFSSKFQVDNNNRLLLQQVSLPELPGEYSMKVTGEGCVYLQTSLKYNILPEKEEFPFALGVQTLPQTCDEPKAHTSFQISLSVSYTGSRSASNMAIVDVKMVSGFIPLKPTVKMLERSNHVSRTEVSSNHVLIYLDKVSNQTLSLFFTVLQDVPVRDLKPAIVKVYDYYETDEFAIAEYNAPCSKDLGNA
